Laboratory results taken from patent US20190241669A1 (published 2019).
Numbering of substitutions follows the chain as printed.

B1: P6AP-V1 (protein)
chain: EVQLLESGGGLVQPGGSLRLSCAASGFTFGSYAMTWVRQAPGKGLEWVSAISGSGGNTFYADSVKGRFTISRDNSKNTLYLQMNSLRAEDTAVYYCARVSPIAAPMDYWGQGTLVTVSSGGGGSGGGGSGGGGSEIVLTQSPGTLSLSPGERATLSCRASQLGSFYLAWYQQKPGQAPRLLIYGASSRATGIPDRFSGSGSGTDFTLTISRLEPEDFAVYYCQHYNYPPSFTFGQGTKVEIKGLAVSTISSFFPPGYQIYIWAPLAGTCGVLLLSLVITLYCKRGRKKLLYIFKQPFMRPVQTTQEEDGCSCRFPEEEEGGCELRVKFSRSADAPAYQQGQNQLYNELNLGRREEYDVLDKRRGRDPEMGGKPRRKNPQEGLYNELQKDKMAEAYSEIGMKGERRRGKGHDGLYQGLSTATKDTYDALHMQALPPR
B2: P5AC16-V1 BCMA specific CAR (protein)
chain: EVQLLESGGGLVQPGGSLRLSCAASGFTFSSYAMNWVRQAPGKGLEWVSAISDFGGSTYYADSVKGRFTISRDNSKNTLYLQMNSLRAEDTAVYYCARYWPMDIWGQGTLVTVSSGGGGSGGGGSGGGGSEIVLTQSPGTLSLSPGERATLSCRASQSVSDLYLAWYQQKPGQAPRLLMYDASIRATGIPDRFSGSGSGTDFTLTISRLEPEDFAVYYCQQYQTWPLTFGQGTKVEIKGLAVSTISSFFPPGYQIYIWAPLAGTCGVLLLSLVITLYCKRGRKKLLYIFKQPFMRPVQTTQEEDGCSCRFPEEEEGGCELRVKFSRSADAPAYQQGQNQLYNELNLGRREEYDVLDKRRGRDPEMGGKPRRKNPQEGLYNELQKDKMAEAYSEIGMKGERRRGKGHDGLYQGLSTATKDTYDALHMQALPPR
B3: A02_Rd4_6nM_C01 (antibody, V domains shown)
VH: EVQLLESGGGLVQPGGSLRLSCAASGFTFSSYAMNWVRQAPGKGLEWVSAITASGGSTYYADSVKGRFTISRDNSKNTLYLQMNSLRAEDTAVYYCARYWPMSLWGQGTLVTVSS
VL: EIVLTQSPGTLSLSPGERATLSCRASQSVSAYYLAWYQQKPGQAPRLLMYDASIRATGIPDRFSGSGSGTDFTLTISRLEPEDFAVYYCQQYERWPLTFGQGTKVEIK
notes: IgG
B4: COMBO_Rd4_0.6nM_C29 (antibody, V domains shown)
VH: B3 VH with A33P, N35S, T52G, A53G, T58L, Y59P, S103D, L104I
VL: B3 VL with A31S, Y32S, E93Q, R94S
notes: IgG
B5: A02_Rd4_6nM_C16 (antibody, V domains shown)
VH: B3 VH with T52S, A53D, S54F, S103D, L104I
VL: B3 VL with A31D, Y32L, E93Q, R94T
notes: IgG; also called P5AC16; P5A16
B6: PC1-V1 BCMA specific CAR (protein)
chain: EVQLLESGGGLVQPGGSLRLSCAASGFTFSSYPMSWVRQAPGKGLEWVSAIGGSGGSTYYADSVKGRFTISRDNSKNTLYLQMNSLRAEDTAVYYCARYWPMDSWGQGTLVTVSSGGGGSGGGGSGGGGSEIVLTQSPGTLSLSPGERATLSCRASQSVSSTYLAWYQQKPGQAPRLLIYDASSRAPGIPDRFSGSGSGTDFTLTISRLEPEDFAVYYCQQYSTSPLTFGQGTKVEIKGLAVSTISSFFPPGYQIYIWAPLAGTCGVLLLSLVITLYCKRGRKKLLYIFKQPFMRPVQTTQEEDGCSCRFPEEEEGGCELRVKFSRSADAPAYQQGQNQLYNELNLGRREEYDVLDKRRGRDPEMGGKPRRKNPQEGLYNELQKDKMAEAYSEIGMKGERRRGKGHDGLYQGLSTATKDTYDALHMQALPPR

How the values were obtained:
[1] = biological target: BCMA on MM1S cells (human) (UniProt Q02223); experiment: cell-based or functional assay
Chain of BCMA on MM1S cells (human) (Q02223 whole entry): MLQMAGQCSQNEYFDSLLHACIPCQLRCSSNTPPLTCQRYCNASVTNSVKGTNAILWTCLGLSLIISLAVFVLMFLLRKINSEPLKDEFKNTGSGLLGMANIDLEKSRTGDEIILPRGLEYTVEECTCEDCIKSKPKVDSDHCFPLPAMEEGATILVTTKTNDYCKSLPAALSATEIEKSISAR

[2] = biological target: human BCMA (B-cell maturation antigen) (human) (UniProt Q02223); experiment: cell-based or functional assay
Chain of human BCMA (B-cell maturation antigen) (human) (Q02223 other isoform, or with tags, fused parts or gaps): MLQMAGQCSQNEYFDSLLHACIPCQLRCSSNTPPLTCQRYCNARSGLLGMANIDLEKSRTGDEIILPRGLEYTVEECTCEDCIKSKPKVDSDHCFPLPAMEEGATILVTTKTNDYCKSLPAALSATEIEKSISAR

[3] = biological target: BCMA (analyte of Table 4A); experiment: SPR (Bio-Rad ProteOn XPR36), IgG amine-coupled, BCMA as analyte, kinetic titration; BCMA species and temperature not stated in Table 4A
Chain of BCMA (analyte of Table 4A) (Q02223 whole entry): as the sequence (Q02223 whole entry) above

Human BCMA (human) = Human BCMA (human) (UniProt Q02223); experiment: SPR, IgG on chip, huBCMA analyte
cynomolgus monkey BCMA = biological target: T1, cynomolgus monkey BCMA (cynomolgus monkey, UniProt A0A2K5UD97 1-53); experiment: SPR, IgG on chip, cyBCMA analyte
T1 construct: Soluble analyte in SPR; construct not described; also called cyBCMA; Cyno BCMA
T1 sequence (A0A2K5UD97 entry or part of it): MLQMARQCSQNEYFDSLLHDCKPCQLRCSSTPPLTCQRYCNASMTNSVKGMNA

| Binder | % CD107a+ (in CD8+) [1] [%] | MFI CD107a+ [1] | % CD107a+ (in CD8+) (degranulation, CAR-T cells with MM1S cells, Donor 2) [2] [%] | MFI CD107a+ (degranulation, CAR-T cells with MM1S cells, Donor 2) [2] [MFI] | Kd [3] [nM] | koff [3] [s⁻¹] | kon [3] [M⁻¹ s⁻¹] | t1/2 [3] [h] | Kd (Human BCMA (human)) [nM] | koff (Human BCMA (human)) [s⁻¹] | kon (Human BCMA (human)) [M⁻¹ s⁻¹] | Kd (cynomolgus monkey BCMA) [nM] | koff (cynomolgus monkey BCMA) [s⁻¹] | kon (cynomolgus monkey BCMA) [M⁻¹ s⁻¹] | % CD107a+ (in CD8+) (degranulation, CAR-T cells with MM1S cells, Donor 3) [2] [%] | MFI CD107a+ (degranulation, CAR-T cells with MM1S cells, Donor 3) [2] [MFI] |
| --- | --- | --- | --- | --- | --- | --- | --- | --- | --- | --- | --- | --- | --- | --- | --- | --- |
| B1 | 46.4 | 1850 | – | – | – | – | – | – | – | – | – | – | – | – | – | – |
| B2 | – | – | 61.6 | 1860 | – | – | – | – | – | – | – | – | – | – | – | – |
| B3 | – | – | – | – | 0.024 | 2.8e-05 | 1.2e+06 | 6.85 | 0.03 | 9.2e-05 | 3.11e+06 | 0.401 | 0.000583 | 1.45e+06 | – | – |
| B4 | – | – | – | – | 0.021 | 0.00014 | 6.6e+06 | 1.38 | 0.019 | 0.000277 | 1.47e+07 | 0.084 | 0.000336 | 4e+06 | – | – |
| B5 | – | – | – | – | 0.059 | 6.2e-05 | 1.1e+06 | 3.12 | 0.09 | 0.000141 | 1.56e+06 | 0.118 | 0.000158 | 1.34e+06 | – | – |
| B6 | – | – | – | – | – | – | – | – | – | – | – | – | – | – | 75.6 | 2180 |
